The text below walks through data of patent US20140087995A1 (published 2014).

T1: rat calcitonin receptor (rat, UniProt P32214 25-516)
T1 construct: whole, on cells; Used as membranes prepared from the transfected cells; also called rCTR; rCT
T1 sequence (looked up): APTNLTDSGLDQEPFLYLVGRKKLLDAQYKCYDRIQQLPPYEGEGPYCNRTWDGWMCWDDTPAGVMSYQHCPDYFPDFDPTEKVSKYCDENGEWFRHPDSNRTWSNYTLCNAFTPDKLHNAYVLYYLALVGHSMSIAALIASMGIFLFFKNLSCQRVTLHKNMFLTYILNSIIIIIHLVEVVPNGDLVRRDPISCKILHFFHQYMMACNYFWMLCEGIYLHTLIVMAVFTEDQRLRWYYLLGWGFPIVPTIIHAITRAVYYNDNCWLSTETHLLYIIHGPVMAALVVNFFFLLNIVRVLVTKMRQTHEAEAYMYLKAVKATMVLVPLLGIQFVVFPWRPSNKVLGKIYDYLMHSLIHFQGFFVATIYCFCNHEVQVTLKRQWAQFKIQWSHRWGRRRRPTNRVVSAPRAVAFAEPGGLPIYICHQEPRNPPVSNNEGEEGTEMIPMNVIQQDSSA

T2: human calcitonin receptor (human, UniProt P30988 25-474)
T2 construct: whole, on cells; Used as membranes prepared from the transfected cells; also called hCTR; hCT
T2 sequence (looked up): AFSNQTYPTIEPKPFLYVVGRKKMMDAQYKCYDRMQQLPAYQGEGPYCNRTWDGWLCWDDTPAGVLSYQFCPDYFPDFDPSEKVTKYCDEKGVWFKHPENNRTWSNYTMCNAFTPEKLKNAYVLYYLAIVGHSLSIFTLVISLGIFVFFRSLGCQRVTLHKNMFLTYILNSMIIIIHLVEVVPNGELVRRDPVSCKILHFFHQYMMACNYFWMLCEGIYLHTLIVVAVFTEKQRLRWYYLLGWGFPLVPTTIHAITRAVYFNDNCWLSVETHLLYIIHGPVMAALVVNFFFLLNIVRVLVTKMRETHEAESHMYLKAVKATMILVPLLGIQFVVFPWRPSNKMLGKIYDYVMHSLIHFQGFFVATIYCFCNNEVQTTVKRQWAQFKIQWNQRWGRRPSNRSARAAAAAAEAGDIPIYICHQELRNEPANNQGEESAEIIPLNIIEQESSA

B1: N^ε1-[(4S)-4-carboxy-4-(19-carboxynonadecanoylamino)butanoyl]-[Arg14,Arg17,Pro21,Pro27]-h-amylin (peptide)
peptide: K([γGlu-C20 diacid])CNTATCATQRLARFLRHSSPNFGAIPSSTNVGSNTY-NH2
modifications: disulfide 2-7; N-terminus assumed
SMILES: CC[C@H](C)[C@H](NC(=O)[C@H](C)NC(=O)CNC(=O)[C@H](Cc1ccccc1)NC(=O)[C@H](CC(N)=O)NC(=O)[C@@H]1CCCN1C(=O)[C@H](CO)NC(=O)[C@H](CO)NC(=O)[C@H](Cc1c[nH]cn1)NC(=O)[C@H](CCCNC(=N)N)NC(=O)[C@H](CC(C)C)NC(=O)[C@H](Cc1ccccc1)NC(=O)[C@H](CCCNC(=N)N)NC(=O)[C@H](C)NC(=O)[C@H](CC(C)C)NC(=O)[C@H](CCCNC(=N)N)NC(=O)[C@H](CCC(N)=O)NC(=O)[C@@H](NC(=O)[C@H](C)NC(=O)[C@@H]1CSSC[C@H](NC(=O)[C@@H](N)CCCCNC(=O)CC[C@H](NC(=O)CCCCCCCCCCCCCCCCCCC(=O)O)C(=O)O)C(=O)N[C@@H](CC(N)=O)C(=O)N[C@@H]([C@@H](C)O)C(=O)N[C@@H](C)C(=O)N[C@@H]([C@@H](C)O)C(=O)N1)[C@@H](C)O)C(=O)N1CCC[C@H]1C(=O)N[C@@H](CO)C(=O)N[C@@H](CO)C(=O)N[C@H](C(=O)N[C@@H](CC(N)=O)C(=O)N[C@H](C(=O)NCC(=O)N[C@@H](CO)C(=O)N[C@@H](CC(N)=O)C(=O)N[C@H](C(=O)N[C@@H](Cc1ccc(O)cc1)C(N)=O)[C@@H](C)O)C(C)C)[C@@H](C)O
notes: Analogue of human amylin; disulfide and C-terminal amide as told for h-amylin; also called compound 83
B2: N^ε1-[(4S)-4-carboxy-4-(19-carboxynonadecanoylamino)butanoyl]-[His14,Arg17,Pro21,Pro27,Arg34]-h-amylin (peptide)
peptide: K([γGlu-C20 diacid])CNTATCATQRLAHFLRHSSPNFGAIPSSTNVGRNTY-NH2
modifications: disulfide 2-7; N-terminus assumed
SMILES: CC[C@H](C)[C@H](NC(=O)[C@H](C)NC(=O)CNC(=O)[C@H](Cc1ccccc1)NC(=O)[C@H](CC(N)=O)NC(=O)[C@@H]1CCCN1C(=O)[C@H](CO)NC(=O)[C@H](CO)NC(=O)[C@H](Cc1c[nH]cn1)NC(=O)[C@H](CCCNC(=N)N)NC(=O)[C@H](CC(C)C)NC(=O)[C@H](Cc1ccccc1)NC(=O)[C@H](Cc1c[nH]cn1)NC(=O)[C@H](C)NC(=O)[C@H](CC(C)C)NC(=O)[C@H](CCCNC(=N)N)NC(=O)[C@H](CCC(N)=O)NC(=O)[C@@H](NC(=O)[C@H](C)NC(=O)[C@@H]1CSSC[C@H](NC(=O)[C@@H](N)CCCCNC(=O)CC[C@H](NC(=O)CCCCCCCCCCCCCCCCCCC(=O)O)C(=O)O)C(=O)N[C@@H](CC(N)=O)C(=O)N[C@@H]([C@@H](C)O)C(=O)N[C@@H](C)C(=O)N[C@@H]([C@@H](C)O)C(=O)N1)[C@@H](C)O)C(=O)N1CCC[C@H]1C(=O)N[C@@H](CO)C(=O)N[C@@H](CO)C(=O)N[C@H](C(=O)N[C@@H](CC(N)=O)C(=O)N[C@H](C(=O)NCC(=O)N[C@@H](CCCNC(=N)N)C(=O)N[C@@H](CC(N)=O)C(=O)N[C@H](C(=O)N[C@@H](Cc1ccc(O)cc1)C(N)=O)[C@@H](C)O)C(C)C)[C@@H](C)O
notes: Analogue of human amylin; disulfide and C-terminal amide as told for h-amylin; also called compound 85
B3: N^ε1-[(4S)-4-carboxy-4-(19-carboxynonadecanoylamino)butanoyl]-[Arg17,Pro21,Pro27,Arg34]-h-amylin (peptide)
peptide: K([γGlu-C20 diacid])CNTATCATQRLANFLRHSSPNFGAIPSSTNVGRNTY-NH2
modifications: disulfide 2-7; N-terminus assumed
SMILES: CC[C@H](C)[C@H](NC(=O)[C@H](C)NC(=O)CNC(=O)[C@H](Cc1ccccc1)NC(=O)[C@H](CC(N)=O)NC(=O)[C@@H]1CCCN1C(=O)[C@H](CO)NC(=O)[C@H](CO)NC(=O)[C@H](Cc1c[nH]cn1)NC(=O)[C@H](CCCNC(=N)N)NC(=O)[C@H](CC(C)C)NC(=O)[C@H](Cc1ccccc1)NC(=O)[C@H](CC(N)=O)NC(=O)[C@H](C)NC(=O)[C@H](CC(C)C)NC(=O)[C@H](CCCNC(=N)N)NC(=O)[C@H](CCC(N)=O)NC(=O)[C@@H](NC(=O)[C@H](C)NC(=O)[C@@H]1CSSC[C@H](NC(=O)[C@@H](N)CCCCNC(=O)CC[C@H](NC(=O)CCCCCCCCCCCCCCCCCCC(=O)O)C(=O)O)C(=O)N[C@@H](CC(N)=O)C(=O)N[C@@H]([C@@H](C)O)C(=O)N[C@@H](C)C(=O)N[C@@H]([C@@H](C)O)C(=O)N1)[C@@H](C)O)C(=O)N1CCC[C@H]1C(=O)N[C@@H](CO)C(=O)N[C@@H](CO)C(=O)N[C@H](C(=O)N[C@@H](CC(N)=O)C(=O)N[C@H](C(=O)NCC(=O)N[C@@H](CCCNC(=N)N)C(=O)N[C@@H](CC(N)=O)C(=O)N[C@H](C(=O)N[C@@H](Cc1ccc(O)cc1)C(N)=O)[C@@H](C)O)C(C)C)[C@@H](C)O
notes: Analogue of human amylin; disulfide and C-terminal amide as told for h-amylin; also called compound 79
B4: N^ε1-[(4S)-4-carboxy-4-(19-carboxynonadecanoylamino)butanoyl]-[His14,Arg17,Pro21,Pro27,His34]-h-amylin (peptide)
peptide: K([γGlu-C20 diacid])CNTATCATQRLAHFLRHSSPNFGAIPSSTNVGHNTY-NH2
modifications: disulfide 2-7; N-terminus assumed
SMILES: CC[C@H](C)[C@H](NC(=O)[C@H](C)NC(=O)CNC(=O)[C@H](Cc1ccccc1)NC(=O)[C@H](CC(N)=O)NC(=O)[C@@H]1CCCN1C(=O)[C@H](CO)NC(=O)[C@H](CO)NC(=O)[C@H](Cc1c[nH]cn1)NC(=O)[C@H](CCCNC(=N)N)NC(=O)[C@H](CC(C)C)NC(=O)[C@H](Cc1ccccc1)NC(=O)[C@H](Cc1c[nH]cn1)NC(=O)[C@H](C)NC(=O)[C@H](CC(C)C)NC(=O)[C@H](CCCNC(=N)N)NC(=O)[C@H](CCC(N)=O)NC(=O)[C@@H](NC(=O)[C@H](C)NC(=O)[C@@H]1CSSC[C@H](NC(=O)[C@@H](N)CCCCNC(=O)CC[C@H](NC(=O)CCCCCCCCCCCCCCCCCCC(=O)O)C(=O)O)C(=O)N[C@@H](CC(N)=O)C(=O)N[C@@H]([C@@H](C)O)C(=O)N[C@@H](C)C(=O)N[C@@H]([C@@H](C)O)C(=O)N1)[C@@H](C)O)C(=O)N1CCC[C@H]1C(=O)N[C@@H](CO)C(=O)N[C@@H](CO)C(=O)N[C@H](C(=O)N[C@@H](CC(N)=O)C(=O)N[C@H](C(=O)NCC(=O)N[C@@H](Cc1c[nH]cn1)C(=O)N[C@@H](CC(N)=O)C(=O)N[C@H](C(=O)N[C@@H](Cc1ccc(O)cc1)C(N)=O)[C@@H](C)O)C(C)C)[C@@H](C)O
notes: Analogue of human amylin; disulfide and C-terminal amide as told for h-amylin; also called compound 81
B5: N^ε1-[(4S)-4-carboxy-4-(19-carboxynonadecanoylamino)butanoyl]-[Arg17,Pro21,Pro27,His34]-h-amylin (peptide)
peptide: K([γGlu-C20 diacid])CNTATCATQRLANFLRHSSPNFGAIPSSTNVGHNTY-NH2
modifications: disulfide 2-7; N-terminus assumed
SMILES: CC[C@H](C)[C@H](NC(=O)[C@H](C)NC(=O)CNC(=O)[C@H](Cc1ccccc1)NC(=O)[C@H](CC(N)=O)NC(=O)[C@@H]1CCCN1C(=O)[C@H](CO)NC(=O)[C@H](CO)NC(=O)[C@H](Cc1c[nH]cn1)NC(=O)[C@H](CCCNC(=N)N)NC(=O)[C@H](CC(C)C)NC(=O)[C@H](Cc1ccccc1)NC(=O)[C@H](CC(N)=O)NC(=O)[C@H](C)NC(=O)[C@H](CC(C)C)NC(=O)[C@H](CCCNC(=N)N)NC(=O)[C@H](CCC(N)=O)NC(=O)[C@@H](NC(=O)[C@H](C)NC(=O)[C@@H]1CSSC[C@H](NC(=O)[C@@H](N)CCCCNC(=O)CC[C@H](NC(=O)CCCCCCCCCCCCCCCCCCC(=O)O)C(=O)O)C(=O)N[C@@H](CC(N)=O)C(=O)N[C@@H]([C@@H](C)O)C(=O)N[C@@H](C)C(=O)N[C@@H]([C@@H](C)O)C(=O)N1)[C@@H](C)O)C(=O)N1CCC[C@H]1C(=O)N[C@@H](CO)C(=O)N[C@@H](CO)C(=O)N[C@H](C(=O)N[C@@H](CC(N)=O)C(=O)N[C@H](C(=O)NCC(=O)N[C@@H](Cc1c[nH]cn1)C(=O)N[C@@H](CC(N)=O)C(=O)N[C@H](C(=O)N[C@@H](Cc1ccc(O)cc1)C(N)=O)[C@@H](C)O)C(C)C)[C@@H](C)O
notes: Analogue of human amylin; disulfide and C-terminal amide as told for h-amylin; also called compound 77

Numbered stars: 1 amine (or outer) side, 2 acyl side, 3 side chain; on linkers, the order of the positions; unused ones are H or OH. Bridge positions count the residues as written; N and C are the ends. Side chains are listed from the residue outwards. Ends that are not written are not given here. * marks the point of attachment. C20 diacid = O=C(O)CCCCCCCCCCCCCCCCCCC(=O)*; γGlu = O=C(O)[C@H](CCC(=O)[*:2])N[*:1]

The target of one experiment is T1, rat calcitonin receptor. In words: SPA competition with 125I-calcitonin, membranes with rat calcitonin receptor (Assay VIII).
Consider B1, for which the IC50 was determined as 140 nM.
The same measure, in the same setting: then B2, with 146 nM; and B3, with 35.5 nM.
Same read-out and setting: for B4 the value was 61.1 nM; for B5, 205 nM.

A further experiment deals with T1, rat calcitonin receptor. Kind of experiment: ratio of binding IC50 at rat calcitonin receptor to IC50 at rat amylin receptor (reference).
In the case of B1, the “Ratio rCT/rAmylin binding” value turned out to be 49.7.
The same measure, in the same setting: for B2 the value was 46.5; for B3, 21.5.
The same measure, in the same setting: then B4, with 42.9.
On the same count and under the same terms, then B5, with 137.

For the next experiment, the target named is T2, human calcitonin receptor. In words: ratio of binding IC50 at human calcitonin receptor to IC50 at human amylin receptor (reference). The method in brief:
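Competition binding by SPA uses membrane preparations (35 ng/μL final) in pH 7.4 Hepes buffer with 1 mM CaCl2 and 5 mM MgCl₂. Incubation lasts 120 min at 25° C, and IC₅₀ comes from one-site fitting.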
For the molecule B1, the “Ratio hCT/hAmylin binding” value was determined as 146.
Same read-out and setting: for B2 the value was 91.8.
Take B3: the “Ratio hCT/hAmylin binding” value is 46.1.
Still for that read-out and setting: then B4, with 87.2.
Still for that read-out and setting: then B5, with 118.
